The values below come from PMC11303627 (Cancer Immunology, Immunotherapy : CII, 2024).

This test has as its target T1, human TF-Fc (Homo sapiens, UniProt P13726).
T1 construct: tissue factor (TF; CD142), human; Construct limits may be in Supplementary file1; also called human tissue factor Fc fusion protein; HuTF; source: Expi293F, transfected (pcDNA3.1(-), Genscript), purified from supernatant (Protein A; for SPR also SEC on Superdex 200 after 2 mM DTT)
Put plainly: SPR; human TF-Fc amine-coupled to a CM5 chip (target 500 RU); scFvFc flowed over at 18.75-3.125 nM in PBS-EP (0.01% Tween20, 300 mM NaCl PBS, pH 7.4), 30 µL/min, contact 180 s, dissociation 600 s; 25 °C; Biacore X100; global fit, 1:1 binding model. The following applies: both partners purified. A general note: In SPR one partner is held on a chip, and binding of the other changes the refractive index at the surface.

T1 sequence (P13726 33-251): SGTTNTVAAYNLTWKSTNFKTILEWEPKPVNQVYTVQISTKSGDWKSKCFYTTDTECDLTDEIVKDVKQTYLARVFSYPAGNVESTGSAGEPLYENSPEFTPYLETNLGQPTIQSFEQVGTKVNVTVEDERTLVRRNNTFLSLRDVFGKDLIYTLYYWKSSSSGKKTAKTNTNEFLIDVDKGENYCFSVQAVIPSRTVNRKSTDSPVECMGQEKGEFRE

B1: TF8-5G9 anti-TF scFvFc (scFv, V domains shown)
VH: EIQLQQSGAELVRPGALVKLSCKASGFNIKDYYMHWVKQRPEQGLEWIGLIDPENGNTIYDPKFQGKASITADTSSNTAYLQLSSLTSEDTAVYYCARDNSYYFDYWGQGTTLTVSS
VL: DIKMTQSPSSMYASLGERVTITCKASQDIRKYLNWYQQKPWKSPKTLIYYATSLADGVPSRFSGSGSGQDYSLTISSLESDDTATYYCLQHGESPYTFGGGTKLEIN
notes: also called TF8-5G9 scFvFc; TF85G9 scFvFc; source: Expi293F, transfected (pcDNA3.1(-)), purified from supernatant (Protein A, then SEC on Superdex 200 after 2 mM DTT)
As usually defined, the Kd is the equilibrium constant for the complex coming apart. In turn, B1 had a Kd of 0.37 nM. This lies in the sub-nanomolar range.

B2: hATR-5 scFvFc (scFv, V domains shown)
VH: QVQLLESGAVLARPGTSVKISCKASGFNIKDYYMHWVKQRPGQGLEWIGGNDPANGHSMYDPKFQGRVTITADTSTSTVFMELSSLRSEDTAVYYCARDSGYAMDYWGQGTLVTVSS
VL: DIQMTQSPSSLSASVGDRVTITCKASQDIKSFLSWYQQKPEKAPKSLIYYATSLADGVPSRFSGSGSGTDYTLTISSLQPEDFATYYCLQHGESPYTFGGGTKVEIK
notes: source: Expi293F, transfected (pcDNA3.1(-)), purified from supernatant (Protein A, then SEC on Superdex 200 after 2 mM DTT)
In turn, B2 gave a Kd of 0.46 nM. The Kd values of the last two molecules are within 1.5-fold of each other.
